# Reference: the supplement of paper PMC9112550, “Optimization of the antimicrobial peptide Bac7 by deep mutational scanning” (BMC Biology, 2022)
# System: Escherichia coli TOP10
# Assay: shrunken log2 fold change of peptide-encoding DNA abundance (4.5 h post-induction vs induction); higher = less antimicrobial activity (less host growth inhibition)
# Details: time post-induction: 4.5 h; library: site-saturation at positions 5, 18, 19, 20
# 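Note: peptides expressed intracellularly from a pBAD plasmid library in pooled LB shake-flask culture, induced with 0.3% L-arabinose, DNA abundance read by NGS, three biological replicates, DESeq2 with apeglm shrinkage.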
row,Sequence,shrunken log2 fold change
1,RRIRFRPPRLPRPRPRPGENPRP,0.995
2,RRIRFRPPRLPRPRPRPTEHPRP,-0.316
3,RRIRDRPPRLPRPRPRPGINPRP,0.0194
4,RRIRHRPPRLPRPRPRPPIAPRP,-0.0868
5,RRIRARPPRLPRPRPRPVGCPRP,0.768
6,RRIRIRPPRLPRPRPRPQYYPRP,-1.28
7,RRIRERPPRLPRPRPRPCGVPRP,0.0484
8,RRIRKRPPRLPRPRPRPPYSPRP,-0.433
9,RRIRSRPPRLPRPRPRPNKQPRP,-0.221
10,RRIRMRPPRLPRPRPRPWENPRP,-0.0294
11,RRIRGRPPRLPRPRPRPEDPPRP,1.38
12,RRIRARPPRLPRPRPRPQKWPRP,0.301
13,RRIRHRPPRLPRPRPRPTIFPRP,-0.0675
14,RRIRERPPRLPRPRPRPDAHPRP,-0.308
15,RRIRCRPPRLPRPRPRPLTEPRP,0.131
16,RRIRERPPRLPRPRPRPGWNPRP,0.277
17,RRIRKRPPRLPRPRPRPKTWPRP,0.344
18,RRIRQRPPRLPRPRPRPDVGPRP,-0.0428
19,RRIRKRPPRLPRPRPRPIEIPRP,-0.0122
20,RRIRLRPPRLPRPRPRPDWKPRP,0.0269
21,RRIRMRPPRLPRPRPRPGMGPRP,0.902
22,RRIRHRPPRLPRPRPRPGVEPRP,0.0675
23,RRIRKRPPRLPRPRPRPKHPPRP,0.068
24,RRIRTRPPRLPRPRPRPFCSPRP,0.207
25,RRIRFRPPRLPRPRPRPQSSPRP,0.0748

row,Sequence,shrunken log2 fold change
1,RRIRGRPPRLPRPRPRPMPPPRP,1.23
2,RRIRYRPPRLPRPRPRPAYGPRP,3.33
3,RRIRWRPPRLPRPRPRPDYEPRP,-0.0912
4,RRIRARPPRLPRPRPRPHFLPRP,-0.127
5,RRIRPRPPRLPRPRPRPWRCPRP,0.199
6,RRIRNRPPRLPRPRPRPYLGPRP,-0.21
7,RRIRKRPPRLPRPRPRPQDFPRP,0.00806
8,RRIRWRPPRLPRPRPRPKLDPRP,0.206
9,RRIRERPPRLPRPRPRPDHKPRP,-0.501
10,RRIRGRPPRLPRPRPRPHSGPRP,-0.0558
11,RRIRMRPPRLPRPRPRPSDYPRP,0.0806
12,RRIRCRPPRLPRPRPRPQYEPRP,-0.119
13,RRIRSRPPRLPRPRPRPIVSPRP,0.0431
14,RRIRDRPPRLPRPRPRPDPFPRP,-0.00228
15,RRIRPRPPRLPRPRPRPQDWPRP,0.0908
16,RRIRHRPPRLPRPRPRPQFRPRP,-0.0324
17,RRIRSRPPRLPRPRPRPPLSPRP,0.125
18,RRIRNRPPRLPRPRPRPVQVPRP,-0.317
19,RRIRIRPPRLPRPRPRPQEPPRP,-0.04
20,RRIRYRPPRLPRPRPRPDRHPRP,-0.189
21,RRIRVRPPRLPRPRPRPKWQPRP,-0.0246
22,RRIRTRPPRLPRPRPRPYHPPRP,-0.304
23,RRIRERPPRLPRPRPRPMSWPRP,0.13
24,RRIRVRPPRLPRPRPRPNNKPRP,-0.472
25,RRIRQRPPRLPRPRPRPPRQPRP,0.101

row,Sequence,shrunken log2 fold change
1,RRIRIRPPRLPRPRPRPVIVPRP,-0.214
2,RRIRHRPPRLPRPRPRPESNPRP,-0.131
3,RRIRQRPPRLPRPRPRPPPNPRP,0.508
4,RRIRHRPPRLPRPRPRPHSLPRP,-0.00992
5,RRIRKRPPRLPRPRPRPFSCPRP,-0.122
6,RRIRWRPPRLPRPRPRPASTPRP,0.349
7,RRIRCRPPRLPRPRPRPVDKPRP,-0.184
8,RRIRERPPRLPRPRPRPGLRPRP,0.0748
9,RRIRLRPPRLPRPRPRPHQRPRP,-0.259
10,RRIRPRPPRLPRPRPRPDDFPRP,-0.371
11,RRIRWRPPRLPRPRPRPFLCPRP,-0.139
12,RRIRYRPPRLPRPRPRPFHKPRP,-0.0655
13,RRIRPRPPRLPRPRPRPQEKPRP,-0.0282
14,RRIRLRPPRLPRPRPRPPMIPRP,-0.0218
15,RRIRGRPPRLPRPRPRPNPYPRP,-0.0945
16,RRIRMRPPRLPRPRPRPANSPRP,0.0248
17,RRIRWRPPRLPRPRPRPMYGPRP,-0.0856
18,RRIRSRPPRLPRPRPRPHNVPRP,-0.436
19,RRIRLRPPRLPRPRPRPDPWPRP,0.0779
20,RRIRVRPPRLPRPRPRPKYAPRP,-0.236
21,RRIRGRPPRLPRPRPRPFEVPRP,0.121
22,RRIRVRPPRLPRPRPRPNTYPRP,-0.71
23,RRIRCRPPRLPRPRPRPSTFPRP,-0.714
24,RRIRLRPPRLPRPRPRPWTRPRP,-0.148
25,RRIRTRPPRLPRPRPRPQWMPRP,-0.291

row,Sequence,shrunken log2 fold change
1,RRIRYRPPRLPRPRPRPCEEPRP,-0.156
2,RRIRVRPPRLPRPRPRPHTIPRP,-0.487
3,RRIRKRPPRLPRPRPRPGSHPRP,0.0202
4,RRIRDRPPRLPRPRPRPKGEPRP,0.0647
5,RRIRHRPPRLPRPRPRPHNEPRP,-0.458
6,RRIRQRPPRLPRPRPRPFKWPRP,-0.185
7,RRIRWRPPRLPRPRPRPRQPPRP,0.743
8,RRIRTRPPRLPRPRPRPVDGPRP,0.0538
9,RRIRCRPPRLPRPRPRPHLHPRP,-0.626
10,RRIRHRPPRLPRPRPRPHTIPRP,-0.0571
11,RRIRLRPPRLPRPRPRPALWPRP,0.754
12,RRIRFRPPRLPRPRPRPHRPPRP,-0.157
13,RRIRVRPPRLPRPRPRPVKAPRP,0.0603
14,RRIRRRPPRLPRPRPRPLFMPRP,0.0797
15,RRIRHRPPRLPRPRPRPISAPRP,-0.0622
16,RRIRERPPRLPRPRPRPRVIPRP,0.0506
17,RRIRRRPPRLPRPRPRPSWEPRP,0.1
18,RRIRQRPPRLPRPRPRPWTEPRP,0.0355
19,RRIRFRPPRLPRPRPRPQPRPRP,0.541
20,RRIRPRPPRLPRPRPRPVGSPRP,0.261
21,RRIRDRPPRLPRPRPRPATNPRP,0.0922
22,RRIRMRPPRLPRPRPRPVWQPRP,0.752
23,RRIRVRPPRLPRPRPRPDEKPRP,0.11
24,RRIRYRPPRLPRPRPRPYIAPRP,-1.23
25,RRIRTRPPRLPRPRPRPHSLPRP,0.0291

row,Sequence,shrunken log2 fold change
1,RRIRFRPPRLPRPRPRPMHQPRP,-0.0493
2,RRIRNRPPRLPRPRPRPCRIPRP,-0.134
3,RRIRWRPPRLPRPRPRPKVYPRP,-0.0533
4,RRIRIRPPRLPRPRPRPWHKPRP,-0.00213
5,RRIRWRPPRLPRPRPRPTKPPRP,0.184
6,RRIRMRPPRLPRPRPRPGYLPRP,0.0963
7,RRIRWRPPRLPRPRPRPLYTPRP,-0.24
8,RRIRIRPPRLPRPRPRPYIIPRP,-0.403
9,RRIRDRPPRLPRPRPRPKVIPRP,-0.176
10,RRIRQRPPRLPRPRPRPMDIPRP,-0.155
11,RRIRVRPPRLPRPRPRPGGPPRP,0.0704
12,RRIRRRPPRLPRPRPRPTSPPRP,0.225
13,RRIRHRPPRLPRPRPRPAKLPRP,-0.352
14,RRIRERPPRLPRPRPRPYILPRP,-2.27
15,RRIRFRPPRLPRPRPRPPFGPRP,-0.00994
16,RRIRQRPPRLPRPRPRPVPCPRP,0.0476
17,RRIRERPPRLPRPRPRPVMWPRP,0.0878
18,RRIRNRPPRLPRPRPRPCANPRP,0.0435
19,RRIRDRPPRLPRPRPRPQRVPRP,0.143
20,RRIRNRPPRLPRPRPRPSEEPRP,0.0717
21,RRIRTRPPRLPRPRPRPWDHPRP,-0.155
22,RRIRGRPPRLPRPRPRPFWYPRP,-0.0145
23,RRIRGRPPRLPRPRPRPVCVPRP,0.891
24,RRIRSRPPRLPRPRPRPIHHPRP,-0.362
25,RRIRSRPPRLPRPRPRPEPRPRP,0.586

row,Sequence,shrunken log2 fold change
1,RRIRQRPPRLPRPRPRPTPGPRP,0.417
2,RRIRYRPPRLPRPRPRPFWQPRP,-0.122
3,RRIRTRPPRLPRPRPRPDEKPRP,0.0325
4,RRIRPRPPRLPRPRPRPSIRPRP,-0.306
5,RRIRGRPPRLPRPRPRPQISPRP,0.259
6,RRIRFRPPRLPRPRPRPHTVPRP,0.0365
7,RRIRDRPPRLPRPRPRPCTIPRP,-0.23
8,RRIRHRPPRLPRPRPRPIMPPRP,-0.74
9,RRIRRRPPRLPRPRPRPEGTPRP,0.28
10,RRIRRRPPRLPRPRPRPSSWPRP,-0.162
11,RRIRHRPPRLPRPRPRPEYHPRP,-0.317
12,RRIRKRPPRLPRPRPRPWFAPRP,0.171
13,RRIRGRPPRLPRPRPRPIIHPRP,-0.261
14,RRIRWRPPRLPRPRPRPTEIPRP,-0.22
15,RRIRERPPRLPRPRPRPKIEPRP,-0.151
16,RRIRKRPPRLPRPRPRPGELPRP,-0.012
17,RRIRPRPPRLPRPRPRPGFVPRP,0.143
18,RRIRVRPPRLPRPRPRPFCKPRP,-0.144
19,RRIRQRPPRLPRPRPRPVKNPRP,0.142
20,RRIRLRPPRLPRPRPRPFEIPRP,0.0206
21,RRIRGRPPRLPRPRPRPEHPPRP,0.281
22,RRIRCRPPRLPRPRPRPMYAPRP,0.0401
23,RRIRHRPPRLPRPRPRPQVRPRP,-0.134
24,RRIRDRPPRLPRPRPRPGWIPRP,0.19
25,RRIRVRPPRLPRPRPRPHESPRP,0.22
